According to US11986516B2, “Compositions and methods for treatment of SARS-COV-2” (priority 2021, dated 2024):

Key:
[1] = system: EpiDerm™ cultures (EPI-200); experiment: In Vitro EpiDerm Skin Irritation Test (EPI-200-SIT), MTT tissue viability; assay type: cell-based, human
[2] = system: IL-1α; experiment: EpiDerm skin irritation, IL-1α secretion (Quantikine ELISA); assay type: cell-based, human; conditions: EpiDerm cultures, media collected after 24 hours; rhACE-2 2.5-40 μg/ml
[3] = system: human reconstructed nasal epithelium model (NAS-100-BETA by MatTek); experiment: Nasal irritation, MTT tissue viability; assay type: cell-based
Procedure: (§1) The formulations were performed using an increased dosage (e.g., 40-50 μg) compared to the study in Example 3.
(§2) Cultures were maintained and treated topically and at the end of the treatment, tissue viability was determined using the MTT conversion assay as described in Example 3. The Relative Tissue Viability values were determined and used to classify the test articles as irritant or non-irritants according to the assay criteria. As a secondary output, levels of the proinflammatory mediator IL-1α were determined as described in Example 3.

[4] = system: hCoV-19/USA-WA1/2020 (WA); assay type: cell-based, SARS-CoV-2; conditions: in µg/mL
[5] = system: hCoV-19/South Africa/KRISP-K005325/2020 (SA); assay type: cell-based, SARS-CoV-2
[6] = Visual solubility assessment of ACE-2 protein in liquid excipients; assay type: physicochemical; conditions: for Visual observation for solubility: 1.6 μg API in 3.0 g
Procedure: The solubility of compounds in liquid excipients was determined using visual solubility protocol. In this method, about 3.0 g of excipients was accurately weighed in individually labelled 20 mL scintillation vials (USP Type-I). To these vials, accurately measured 1 (1.67 μg) aliquots of protein was added and tightly closed. […] The vials were kept at ambient temperature without agitation for 72 hours and visually inspected at 0, 24, and 72 hours.

[7] = system: IL-1α; experiment: Nasal irritation, IL-1α levels; assay type: cell-based, human
Procedure: as §1, §2

[8] = system: reconstructed human skin model (Epiderm, EPI-200-X); experiment: Skin permeation of rhACE-2 (ACE-2 ELISA of receiving medium); assay type: in vitro ADME; conditions: for skin permeation value (rhACE-2 in receiving medium): 50 μg/ml rhACE-2 in formulation
Procedure: In order to determine the skin permeation profile, a reconstructed human skin model (Epiderm, EPI-200-X manufactured by MatTek Corporation) was used. This model includes normal, human-derived epidermal keratinocytes (NHEK) which have been cultured to form a multilayered, highly differentiated model of the human epidermis. The NHEK cells are cultured on specially-prepared cell culture inserts using serum free medium and attain levels of differentiation. The EpiDerm Skin Model closely parallels human skin, thus providing a useful in vitro means to assess dermal irritancy and toxicology.
After an acclimation period, the skin cultures were treated in triplicates PBS (negative control/baseline), vehicle formulation (“Placebo”), and formulation containing 50 μg/ml ACE-2. At the end of each time point culture medium was completely removed and replaced with fresh medium. The amount of permeated ACE-2 over time was determined by ACE-2 ELISA. Levels of ACE-2 in the receiving medium were determined at the following timepoints: 0 minutes, 5 minutes, 30 minutes, 60 minutes, 180 minutes, 540 minutes, 1260 minutes, and 1440 minutes.

[9] = system: human nasal epithelial cultures (EpiAirway, NAS-100-beta); experiment: Nasal permeation of rhACE-2 (ELISA of receiving medium); assay type: in vitro ADME; conditions: for nasal permeation value (rhACE-2 in receiving medium): 50 μg/ml rhACE-2 in formulation
Source text: In order to determine the nasal permeation profile, human nasal epithelial cultures (EpiAirway, NAS-100-beta manufactured by MatTek Corporation) were used.
At the end of each time point, culture medium was completely removed and replaced with fresh medium.

In the case of `CCCCCCCCCCCCOS(=O)(=O)[O-].[Na+]` [5% SDS], the “mean viability of positive control tissues expressed as percentage of the negative control tissues” value [1] is reported as 4%, the “secretion of IL-1α” value [2] is reported as “significant increase in IL-1α secretion” and the “mean viability of positive control tissues expressed as percentage of the negative control tissues” value ([3]; nasal epithelium model) is reported as 2%.
ACE2 showed an EC50 [4] of 9.206 and an EC50 [5] of 1.18 µg/mL.
For rhACE-2, the “Visual observation for solubility” value ([6]; in 1X PBS, 24 hr) was “Clear solution”, the “Visual observation for solubility” value ([6]; in 1X PBS, 72 hr) was “Clear solution” and the “Visual observation for solubility” value ([6]; in 1X PBS, Initial Observation) was “Clear solution”. For the same compound, the “Visual observation for solubility” value ([6]; in Glycerin, 24 hr) was “Clear solution”, the “Visual observation for solubility” value ([6]; in Glycerin, 72 hr) was “Clear solution” and the “Visual observation for solubility” value ([6]; in Glycerin, Initial Observation) was “Clear solution”. The “Visual observation for solubility” value ([6]; in Hexylene Glycol, 24 hr) was “Clear solution”, the “Visual observation for solubility” value ([6]; in Hexylene Glycol, 72 hr) was “Clear solution” and the “Visual observation for solubility” value ([6]; in Hexylene Glycol, Initial Observation) was “Clear solution”. The “Visual observation for solubility” value ([6]; in Polyethylene Glycol 400, 24 hr) was “Clear solution”, the “Visual observation for solubility” value ([6]; in Polyethylene Glycol 400, 72 hr) was “Clear solution” and the “Visual observation for solubility” value ([6]; in Polyethylene Glycol 400, Initial Observation) was “Clear solution”. The “Visual observation for solubility” value ([6]; in Polysorbate 20, 24 hr) was “Clear yellow”, the “Visual observation for solubility” value ([6]; in Polysorbate 20, 72 hr) was “Clear yellow” and the “Visual observation for solubility” value ([6]; in Polysorbate 20, Initial Observation) was “Clear yellow”. The “Visual observation for solubility” value ([6]; in Propylene Glycol, 24 hr) was “Clear solution”, the “Visual observation for solubility” value ([6]; in Propylene Glycol, 72 hr) was “Clear solution” and the “Visual observation for solubility” value ([6]; in Propylene Glycol, Initial Observation) was “Clear solution”. The “Visual observation for solubility” value ([6]; in Purified Water, USP, 24 hr) was “Clear solution”, the “Visual observation for solubility” value ([6]; in Purified Water, USP, 72 hr) was “Clear solution” and the “Visual observation for solubility” value ([6]; in Purified Water, USP, Initial Observation) was “Clear solution”. For the same compound, the “solubility in all the excipients tested” value ([6]; propylene glycol, hexylene glycol, glycerin, polyethylene glycol 400, polysorbate 20, purified water, PBS) was “readily soluble”, the “classification as nasal irritant” value ([3]; all tested concentrations, 3.06-50 μg/ml) was “nasal non-irritants” and the “average IL-1α levels” value ([7]; rhACE-2 3.06 μg/ml) was 0 ng/mL. For the same compound, the “average IL-1α levels” value ([7]; rhACE-2 6.125 μg/ml) was 0 ng/mL, the “skin permeation value (rhACE-2 in receiving medium)” value (“skin permeation value” below) ([8]; 5 minutes post application) was 0.402 ng/ml and the “skin permeation value” value ([8]; 30 minutes post application) was 0.578 ng/ml. For the same compound, the “skin permeation value” value ([8]; 60 minutes post application) was 1.28 ng/ml, the “skin permeation value” value ([8]; 180 minutes post application) was 0.0196 ng/ml and the “skin permeation value” value ([8]; 540 minutes post application) was 0 ng/ml. The “skin permeation value” value ([8]; 1260 minutes post application) was 0.98 ng/ml, the “skin permeation value” value ([8]; 1440 minutes post application) was 0.029 ng/ml and the “permeation through reconstructed human skin tissue” value ([8]; at 50 μg/ml) was “minimal to negligible permeation”. The “nasal permeation value (rhACE-2 in receiving medium)” value (“nasal permeation value” for short) ([9]; 5 minutes post application) was 0.035 ng/ml, the “nasal permeation value” value ([9]; 180 minutes post application) was 0.06 ng/ml and the “nasal permeation value” value ([9]; 540 minutes post application) was 0.413 ng/ml. For the same compound, the “nasal permeation value” value ([9]; 1260 minutes post application) was 1.03 ng/ml, the “nasal permeation value” value ([9]; 1440 minutes post application) was 0.249 ng/ml and the “permeation through reconstructed human nasal tissue” value ([9]; at 50 μg/ml) was “minimal to negligible permeation”.
